The record followed here is IntAct's records for PubMed 18203820.

The target of the experiment is djb11_human DNAJB11 (UniProt Q9UBS4).
djb11_human DNAJB11, sequence (Q9UBS4 whole entry): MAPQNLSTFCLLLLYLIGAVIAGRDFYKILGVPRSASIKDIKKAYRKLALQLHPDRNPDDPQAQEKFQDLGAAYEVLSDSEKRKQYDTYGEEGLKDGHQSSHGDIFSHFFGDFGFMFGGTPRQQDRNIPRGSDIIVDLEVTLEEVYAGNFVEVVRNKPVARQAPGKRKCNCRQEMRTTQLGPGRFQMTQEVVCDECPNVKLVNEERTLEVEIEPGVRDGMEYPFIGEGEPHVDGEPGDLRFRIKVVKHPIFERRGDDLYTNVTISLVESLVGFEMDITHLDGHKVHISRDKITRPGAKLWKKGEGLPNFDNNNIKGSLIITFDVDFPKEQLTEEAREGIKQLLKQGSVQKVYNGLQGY

Regarding “Endoplasmic reticulum chaperone BiP (Mesocricetus auratus (Golden hamster)), P07823 R197E”, the “effect of a mutation on the interaction” value is “disrupting interaction”.
